Article PMC12329595, “Engineered bacteriophytochrome heterodimers for research and applications” (The Journal of Biological Chemistry, 2025)
Like-named read-outs stand apart in the source and are kept apart here. Each block holds one molecule with its values, some of them ahead of it.

B1: DrBphPRR (full-length DrBphP E148R/E306R) (natural protein)
chain: MSRDPLPFFPPLYLGGPEITTENCEREPIHIPGSIQPHGALLTADGHSGEVLQMSLNAATFLGQEPTVLRGQTLAALLPEQWPALQAALPPGCPDALQYRATLDWPAAGHLSLTVHRVGELLILEFEPTEAWDSTGPHALRNAMFALRSAPNLRALAEVATQTVRELTGFDRVMLYKFAPDATGEVIAEARREGLHAFLGHRFPASDIPAQARALYTRHLLRLTADTRAAAVPLDPVLNPQTNAPTPLGGAVLRATSPMHMQYLRNMGVGSSLSVSVVVGGQLWGLIACHHQTPYVLPPDLRTTLRYLGRLLSLQVQVKEAADVAAFRQSLREHHARVALAAAHSLSPHDTLSDPALDLLGLMRAGGLILRFEGRWQTLGEVPPAPAVDALLAWLETQPGALVQTDALGQLWPAGADLAPSAAGLLAISVGEGWSECLVWLRPELRLEVAWGGATPDQAKDDLGPRHSFDTYLEEKRGYAEPWHPGEIEEAQDLRDTLTGALGERLSVIRDLNRALTQSNAEWRQYGFVISHHMQEPVRLISQFAELLTRQPRAQDGSPDSPQTERITGFLLRETSRLRSLTQDLHTYTALLSAPPPVRRPTPLGRVVDDVLQDLEPRIADTGASIEVAPELPVIAADAGLLRDLLLHLIGNALTFGGPEPRIAVRTERQGAGWSIAVSDQGAGIAPEYQERIFLLFQRLGSLDEALGNGLGLPLCRKIAELHGGTLTVESAPGEGSTFRCWLPDAGPLPGAADA
modifications: biliverdin IXα covalently linked to a conserved cysteine (holoprotein)
notes: Deinococcus radiodurans strain R1 bacteriophytochrome DrBphP, full length; source: E. coli BL21 (DE3), purified (Ni-NTA, SEC)

Tests used:
[1] = biological target: DrPSMRE (DrPSM E306R/R310E) (Deinococcus radiodurans strain R1); test: ITC; MicroCal PEAQ-ITC, 25 °C, darkness (Pr state), 30 mM Tris/HCl, 150 mM NaCl, pH 8.0; cell 9 to 18 μM, syringe 100 to 280 μM; single-site fit; individual components injected into buffer and vice versa as background
[2] = biological target: DrPSMRE (DrPSM E306R/R310E) (Deinococcus radiodurans strain R1); test: as above; remark: listed apart in the source
[3] = biological target: DrPSMRR (DrPSM E148R/E306R) (Deinococcus radiodurans strain R1); test: as above
[4] = biological target: DrPSMRR (DrPSM E148R/E306R) (Deinococcus radiodurans strain R1); test: as above; remark: listed apart in the source
[5] = biological target: the molecule itself; test: SEC; HPLC, bioZen 1.8 μm SEC-3 column, 30 mM Tris/HCl, 150 mM NaCl, pH 8.0 with 10% acetonitrile, 25 °C; full-length DrBphP and DrF1 variants and mixtures
[6] = biological target: B1; test: as above; conditions: both partners purified

Molecule: B1
binding result [5]: binds

B2: DrBphPRE (full-length DrBphP E306R/R310E) (natural protein)
chain: MSRDPLPFFPPLYLGGPEITTENCEREPIHIPGSIQPHGALLTADGHSGEVLQMSLNAATFLGQEPTVLRGQTLAALLPEQWPALQAALPPGCPDALQYRATLDWPAAGHLSLTVHRVGELLILEFEPTEAWDSTGPHALRNAMFALESAPNLRALAEVATQTVRELTGFDRVMLYKFAPDATGEVIAEARREGLHAFLGHRFPASDIPAQARALYTRHLLRLTADTRAAAVPLDPVLNPQTNAPTPLGGAVLRATSPMHMQYLRNMGVGSSLSVSVVVGGQLWGLIACHHQTPYVLPPDLRTTLRYLGELLSLQVQVKEAADVAAFRQSLREHHARVALAAAHSLSPHDTLSDPALDLLGLMRAGGLILRFEGRWQTLGEVPPAPAVDALLAWLETQPGALVQTDALGQLWPAGADLAPSAAGLLAISVGEGWSECLVWLRPELRLEVAWGGATPDQAKDDLGPRHSFDTYLEEKRGYAEPWHPGEIEEAQDLRDTLTGALGERLSVIRDLNRALTQSNAEWRQYGFVISHHMQEPVRLISQFAELLTRQPRAQDGSPDSPQTERITGFLLRETSRLRSLTQDLHTYTALLSAPPPVRRPTPLGRVVDDVLQDLEPRIADTGASIEVAPELPVIAADAGLLRDLLLHLIGNALTFGGPEPRIAVRTERQGAGWSIAVSDQGAGIAPEYQERIFLLFQRLGSLDEALGNGLGLPLCRKIAELHGGTLTVESAPGEGSTFRCWLPDAGPLPGAADA
modifications: biliverdin IXα covalently linked to a conserved cysteine (holoprotein)
notes: as for B1
binding result [5]: binds

B3: Full-length phytochrome from Deinococcus radiodurans strain R1 (DrBphP), wild type (natural protein)
chain: MSRDPLPFFPPLYLGGPEITTENCEREPIHIPGSIQPHGALLTADGHSGEVLQMSLNAATFLGQEPTVLRGQTLAALLPEQWPALQAALPPGCPDALQYRATLDWPAAGHLSLTVHRVGELLILEFEPTEAWDSTGPHALRNAMFALESAPNLRALAEVATQTVRELTGFDRVMLYKFAPDATGEVIAEARREGLHAFLGHRFPASDIPAQARALYTRHLLRLTADTRAAAVPLDPVLNPQTNAPTPLGGAVLRATSPMHMQYLRNMGVGSSLSVSVVVGGQLWGLIACHHQTPYVLPPDLRTTLEYLGRLLSLQVQVKEAADVAAFRQSLREHHARVALAAAHSLSPHDTLSDPALDLLGLMRAGGLILRFEGRWQTLGEVPPAPAVDALLAWLETQPGALVQTDALGQLWPAGADLAPSAAGLLAISVGEGWSECLVWLRPELRLEVAWGGATPDQAKDDLGPRHSFDTYLEEKRGYAEPWHPGEIEEAQDLRDTLTGALGERLSVIRDLNRALTQSNAEWRQYGFVISHHMQEPVRLISQFAELLTRQPRAQDGSPDSPQTERITGFLLRETSRLRSLTQDLHTYTALLSAPPPVRRPTPLGRVVDDVLQDLEPRIADTGASIEVAPELPVIAADAGLLRDLLLHLIGNALTFGGPEPRIAVRTERQGAGWSIAVSDQGAGIAPEYQERIFLLFQRLGSLDEALGNGLGLPLCRKIAELHGGTLTVESAPGEGSTFRCWLPDAGPLPGAADA
modifications: biliverdin IXα covalently linked to a conserved cysteine (holoprotein)
notes: Deinococcus radiodurans strain R1 bacteriophytochrome DrBphP, full length (PSM and histidine kinase module); also called DrBphPWT; source: E. coli BL21 (DE3), purified (Ni-NTA, SEC)
binding result [5]: binds

Other lines, results leading:

Kd [1]: 800 nM
Kd [2]: 12 nM
stoichiometry N [2]: 1
Molecule: DrPSMER (DrPSM R141E/E148R) (domain or fragment)

Kd [3]: 12 nM
Kd [4]: 800 nM
stoichiometry N [4]: 1
Molecule: DrPSMEE (DrPSM R141E/R310E) (domain or fragment)

binding result [6]: binds
B4: DrBphPEE (full-length DrBphP R141E/R310E) (natural protein)
chain: MSRDPLPFFPPLYLGGPEITTENCEREPIHIPGSIQPHGALLTADGHSGEVLQMSLNAATFLGQEPTVLRGQTLAALLPEQWPALQAALPPGCPDALQYRATLDWPAAGHLSLTVHRVGELLILEFEPTEAWDSTGPHALENAMFALESAPNLRALAEVATQTVRELTGFDRVMLYKFAPDATGEVIAEARREGLHAFLGHRFPASDIPAQARALYTRHLLRLTADTRAAAVPLDPVLNPQTNAPTPLGGAVLRATSPMHMQYLRNMGVGSSLSVSVVVGGQLWGLIACHHQTPYVLPPDLRTTLEYLGELLSLQVQVKEAADVAAFRQSLREHHARVALAAAHSLSPHDTLSDPALDLLGLMRAGGLILRFEGRWQTLGEVPPAPAVDALLAWLETQPGALVQTDALGQLWPAGADLAPSAAGLLAISVGEGWSECLVWLRPELRLEVAWGGATPDQAKDDLGPRHSFDTYLEEKRGYAEPWHPGEIEEAQDLRDTLTGALGERLSVIRDLNRALTQSNAEWRQYGFVISHHMQEPVRLISQFAELLTRQPRAQDGSPDSPQTERITGFLLRETSRLRSLTQDLHTYTALLSAPPPVRRPTPLGRVVDDVLQDLEPRIADTGASIEVAPELPVIAADAGLLRDLLLHLIGNALTFGGPEPRIAVRTERQGAGWSIAVSDQGAGIAPEYQERIFLLFQRLGSLDEALGNGLGLPLCRKIAELHGGTLTVESAPGEGSTFRCWLPDAGPLPGAADA
modifications: biliverdin IXα covalently linked to a conserved cysteine (holoprotein)
notes: as for B1
